Target: WT p45 Tcf1 (UniProt Q00417 1-419)
Experiment: EMSA

Sequence of WT p45 Tcf1 (Q00417 whole entry): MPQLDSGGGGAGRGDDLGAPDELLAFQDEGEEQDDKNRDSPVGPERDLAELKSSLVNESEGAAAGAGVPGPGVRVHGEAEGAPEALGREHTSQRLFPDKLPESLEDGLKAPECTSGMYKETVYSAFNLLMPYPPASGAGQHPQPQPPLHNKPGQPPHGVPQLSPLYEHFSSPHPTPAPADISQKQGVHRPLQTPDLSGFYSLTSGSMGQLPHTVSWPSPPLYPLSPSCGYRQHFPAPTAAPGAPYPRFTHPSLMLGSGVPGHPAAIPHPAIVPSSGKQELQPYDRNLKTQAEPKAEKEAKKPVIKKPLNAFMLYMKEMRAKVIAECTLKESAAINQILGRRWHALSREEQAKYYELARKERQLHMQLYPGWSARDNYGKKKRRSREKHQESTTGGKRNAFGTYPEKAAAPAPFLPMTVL

B1: TOP probe (dsDNA)
DNA 1: GATCTAGGGCACCCTTTGAAGCTCT
DNA 2: AGAGCTTCAAAGGGTGCCCTAGATC
binding result: binds

From paper PMC4873337
